B1: Kif3B^ΔC156 (domain or fragment, human, UniProt O15066 1-591, looked up)
chain: MSKLKSSESVRVVVRCRPMNGKEKAASYDKVVDVDVKLGQVSVKNPKGTAHEMPKTFTFDAVYDWNAKQFELYDETFRPLVDSVLQGFNGTIFAYGQTGTGKTYTMEGIRGDPEKRGVIPNSFDHIFTHISRSQNQQYLVRASYLEIYQEEIRDLLSKDQTKRLELKERPDTGVYVKDLSSFVTKSVKEIEHVMNVGNQNRSVGATNMNEHSSRSHAIFVITIECSEVGLDGENHIRVGKLNLVDLAGSERQAKTGAQGERLKEATKINLSLSALGNVISALVDGKSTHIPYRDSKLTRLLQDSLGGNAKTVMVANVGPASYNVEETLTTLRYANRAKNIKNKPRVNEDPKDALLREFQEEIARLKAQLEKRSIGRRKRREKRREGGGSGGGGEEEEEEGEEGEEEGDDKDDYWREQQEKLEIEKRAIVEDHSLVAEEKMRLLKEKEKKMEDLRREKDAAEMLGAKIKAMESKLLVGGKNIVDHTNEQQKILEQKRQEIAEQKRREREIQQQMESRDEETLELKETYSSLQQEVDIKTKKLKKLFSKLQAVKAEIHDLQEEHIKERQELEQTQNELTRELKLKHLIIENFI
notes: Kif3B, human, 156 amino acids truncated from the C terminus (removes the Kif3B β-hairpin motif); also called Kif3B^Δ156; source: Sf9 (baculovirus), coexpressed with Kif3A^ΔC103, purified (IgG Sepharose, TEV elution, SEC); not shown: ZZ, N-terminal, cleaved
B2: Kif3B (human kinesin-2 motor subunit), full length (natural protein, UniProt O15066 1-747, looked up)
chain: MSKLKSSESVRVVVRCRPMNGKEKAASYDKVVDVDVKLGQVSVKNPKGTAHEMPKTFTFDAVYDWNAKQFELYDETFRPLVDSVLQGFNGTIFAYGQTGTGKTYTMEGIRGDPEKRGVIPNSFDHIFTHISRSQNQQYLVRASYLEIYQEEIRDLLSKDQTKRLELKERPDTGVYVKDLSSFVTKSVKEIEHVMNVGNQNRSVGATNMNEHSSRSHAIFVITIECSEVGLDGENHIRVGKLNLVDLAGSERQAKTGAQGERLKEATKINLSLSALGNVISALVDGKSTHIPYRDSKLTRLLQDSLGGNAKTVMVANVGPASYNVEETLTTLRYANRAKNIKNKPRVNEDPKDALLREFQEEIARLKAQLEKRSIGRRKRREKRREGGGSGGGGEEEEEEGEEGEEEGDDKDDYWREQQEKLEIEKRAIVEDHSLVAEEKMRLLKEKEKKMEDLRREKDAAEMLGAKIKAMESKLLVGGKNIVDHTNEQQKILEQKRQEIAEQKRREREIQQQMESRDEETLELKETYSSLQQEVDIKTKKLKKLFSKLQAVKAEIHDLQEEHIKERQELEQTQNELTRELKLKHLIIENFIPLEEKSKIMNRAFFDEEEDHWKLHPITRLENQQMMKRPVSAVGYKRPLSQHARMSMMIRPEARYRAENIVLLELDMPSRTTRDYEGPAIAPKVQAALDAALQDEDEIQVDASSFESTANKKSKARPKSGRKSGSSSSSSGTPASQLYPQSRGLVPK
notes: Kif3B, human, synthesised gene, full-length subunit; source: Sf9 (baculovirus), coexpressed with Kif3A, purified (IgG Sepharose, TEV elution, SEC); not shown: ZZ, N-terminal, cleaved
B3: Kap3 (human) (natural protein, UniProt Q92845 1-792, looked up)
chain: MQGEDARYLKRKVKGGNIDVHPSEKALIVHYEVEATILGEMGDPMLGERKECQKIIRLKSLNANTDITSLARKVVEECKLIHPSKLNEVEQLLYYLQNRRDSLSGKEKKEKSSKPKDPPPFEGMEIDEVANINDMDEYIELLYEDIPDKVRGSALILQLARNPDNLEELLLNETALGALARVLREDWKQSVELATNIIYIFFCFSSFSQFHGLITHYKIGALCMNIIDHELKRHELWQEELSKKKKAVDEDPENQTLRKDYEKTFKKYQGLVVKQEQLLRVALYLLLNLAEDTRTELKMRNKNIVHMLVKALDRDNFELLILVVSFLKKLSIFMENKNDMVEMDIVEKLVKMIPCEHEDLLNITLRLLLNLSFDTGLRNKMVQVGLLPKLTALLGNDNYKQIAMCVLYHISMDDRFKSMFAYTDCIPQLMKMLFECSDERIDLELISFCINLAANKRNVQLICEGNGLKMLMKRALKFKDPLLMKMIRNISQHDGPTKNLFIDYVGDLAAQISNDEEEEFVIECLGTLANLTIPDLDWELVLKEYKLVPYLKDKLKPGAAEDDLVLEVVIMIGTVSMDDSCAALLAKSGIIPALIELLNAQQEDDEFVCQIIYVFYQMVFHQATRDVIIKETQAPAYLIDLMHDKNNEIRKVCDNTLDIIAEYDEEWAKKIQSEKFRWHNSQWLEMVESRQMDESEQYLYGDDRIEPYIHEGDILERPDLFYNSDGLIASEGAISPDFFNDYHLQNGDVVGQHSFPGSLGMDGFGQPVGILGRPATAYGFRPDEPYYYGYGS
notes: Kap3, human, synthesised gene; SNAPf labelled with SNAP-Cell TMR-Star in the TIRF colocalisation assay; No truncation is mentioned; probably the whole protein; source: Sf9 (baculovirus), purified (IgG Sepharose, TEV elution, SEC); not shown: ZZ, N-terminal, cleaved; SNAPf, N-terminal, kept

Columns and labels:
Details in all cases: both partners purified
Kif3A^ΔC103 = molecular target: T1, Kif3A^ΔC103 (human, UniProt Q9Y496 1-596); test: SEC; motor subunits coexpressed in Sf9, purified through the ZZ tag of Kif3B/C on IgG Sepharose, TEV elution, Superose 6 Increase 3.2/300 in buffer A (50 mM Tris-HCl pH 7.5, 150 mM K-acetate, 2 mM Mg-acetate, 5% glycerol, 1 mM DTT, 0.2 mM Mg-ATP); SDS-PAGE of peak fraction
T1 construct: Kif3A, human, 103 amino acids truncated from the C terminus; also called Kif3A^Δ103; source: Sf9 (baculovirus), coexpressed with Kif3B constructs, purified (IgG Sepharose, TEV elution, SEC); not shown: SNAPf, C-terminal, kept

Kap3 (human) = molecular target: B3; test: single-molecule TIRF colocalisation; Alexa-Fluor-647-labelled Kif3AB/C constructs on surface-attached microtubules (1 mM AMPPNP in Fig. 4c), TMR-labelled Kap3 at 1 nM, buffer B, 25 °C; fraction of Kif3A spots with Kap3 signal
[1] = molecular target: T2, Kif3A^ΔC89–Kif3B heterodimer (ΔInt1) (human, UniProt Q9Y496 1-610; O15066 1-747); test: as above
T2 construct: Kif3A, human, 89 amino acids truncated from the C terminus (within the β-hairpin motif); Kif3B, human, synthesised gene, full-length subunit; also called Kif3A^Δ89B; source: Sf9 (baculovirus), coexpressed, purified (IgG Sepharose, TEV elution, SEC); not shown: SNAPf, C-terminal, kept; ZZ, N-terminal, cleaved

[2] = molecular target: T3, Kif3A–Kif3B^ΔC90 heterodimer (ΔInt3) (human, UniProt Q9Y496 1-699; O15066 1-657); test: as above
T3 construct: Kif3A, human, synthesised gene, full-length subunit; Kif3B, human, 90 amino acids truncated from the C terminus; source: Sf9 (baculovirus), coexpressed, purified (IgG Sepharose, TEV elution, SEC); not shown: SNAPf, C-terminal, kept; ZZ, N-terminal, cleaved

[3] = molecular target: T4, Kif3A–Kif3B^ΔC114 heterodimer (ΔInt2+3) (human, UniProt Q9Y496 1-699; O15066 1-633); test: as above
T4 construct: Kif3A, human, synthesised gene, full-length subunit; Kif3B, human, 114 amino acids truncated from the C terminus; source: Sf9 (baculovirus), coexpressed, purified (IgG Sepharose, TEV elution, SEC); not shown: SNAPf, C-terminal, kept; ZZ, N-terminal, cleaved

[4] = molecular target: T5, Kif3AB heterodimer, full length (human, UniProt Q9Y496 1-699; O15066 1-747); test: as above
T5 construct: Kif3A, human, synthesised gene, full-length subunit; Kif3B, human, synthesised gene, full-length subunit; SNAPf on Kif3A labelled with Alexa Fluor 647 in the TIRF assays; A Kif3A construct without SNAPf was also cloned; also called Kif3A–Kif3B; Kif3AB^WT; source: Sf9 (baculovirus), coexpressed, purified (IgG Sepharose, TEV elution, SEC); not shown: SNAPf, C-terminal, kept; ZZ, N-terminal, cleaved
T5 sequence (Q9Y496 whole entry, one chain of several): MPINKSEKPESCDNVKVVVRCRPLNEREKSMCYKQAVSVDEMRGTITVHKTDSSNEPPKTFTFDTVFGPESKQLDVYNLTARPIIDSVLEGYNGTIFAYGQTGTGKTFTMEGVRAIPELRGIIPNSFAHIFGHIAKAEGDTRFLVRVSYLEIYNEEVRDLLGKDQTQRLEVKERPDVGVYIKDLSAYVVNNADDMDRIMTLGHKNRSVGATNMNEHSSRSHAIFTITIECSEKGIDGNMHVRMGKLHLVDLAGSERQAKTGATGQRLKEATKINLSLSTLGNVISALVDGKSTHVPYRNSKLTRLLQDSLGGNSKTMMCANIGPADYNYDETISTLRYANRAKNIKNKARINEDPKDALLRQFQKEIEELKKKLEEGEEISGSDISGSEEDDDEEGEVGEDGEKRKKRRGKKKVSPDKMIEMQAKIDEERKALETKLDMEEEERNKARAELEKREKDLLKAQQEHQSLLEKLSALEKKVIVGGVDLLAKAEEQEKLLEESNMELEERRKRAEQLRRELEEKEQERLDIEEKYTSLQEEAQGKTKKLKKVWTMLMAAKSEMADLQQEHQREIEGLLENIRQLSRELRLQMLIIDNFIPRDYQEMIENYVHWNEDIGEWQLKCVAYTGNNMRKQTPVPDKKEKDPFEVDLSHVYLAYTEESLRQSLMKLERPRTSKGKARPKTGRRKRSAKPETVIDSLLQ

T4 sequence (Q9Y496 whole entry, stated change not applied, the tested form may be a part, one chain of several): as the sequence (Q9Y496 whole entry, one chain of several) above
T3 sequence (Q9Y496 whole entry, stated change not applied, the tested form may be a part, one chain of several): as the sequence (Q9Y496 whole entry, one chain of several) above
T1 sequence (Q9Y496 1-596, stated change not applied): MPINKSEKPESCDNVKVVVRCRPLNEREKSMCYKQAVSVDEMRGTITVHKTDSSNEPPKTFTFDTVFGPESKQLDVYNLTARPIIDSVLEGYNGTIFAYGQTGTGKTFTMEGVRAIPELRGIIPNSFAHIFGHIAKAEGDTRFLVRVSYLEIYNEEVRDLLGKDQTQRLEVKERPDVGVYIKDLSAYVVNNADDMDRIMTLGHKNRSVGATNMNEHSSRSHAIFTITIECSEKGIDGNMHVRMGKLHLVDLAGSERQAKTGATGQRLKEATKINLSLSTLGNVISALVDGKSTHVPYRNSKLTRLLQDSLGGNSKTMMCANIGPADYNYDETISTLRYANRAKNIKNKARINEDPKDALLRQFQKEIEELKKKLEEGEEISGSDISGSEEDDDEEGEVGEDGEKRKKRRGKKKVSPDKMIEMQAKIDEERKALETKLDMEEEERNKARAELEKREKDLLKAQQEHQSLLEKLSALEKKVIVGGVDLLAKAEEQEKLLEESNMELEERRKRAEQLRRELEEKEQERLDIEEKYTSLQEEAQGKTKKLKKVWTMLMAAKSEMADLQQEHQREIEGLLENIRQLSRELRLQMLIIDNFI
T2 sequence (Q9Y496 1-610, stated change not applied, one chain of several): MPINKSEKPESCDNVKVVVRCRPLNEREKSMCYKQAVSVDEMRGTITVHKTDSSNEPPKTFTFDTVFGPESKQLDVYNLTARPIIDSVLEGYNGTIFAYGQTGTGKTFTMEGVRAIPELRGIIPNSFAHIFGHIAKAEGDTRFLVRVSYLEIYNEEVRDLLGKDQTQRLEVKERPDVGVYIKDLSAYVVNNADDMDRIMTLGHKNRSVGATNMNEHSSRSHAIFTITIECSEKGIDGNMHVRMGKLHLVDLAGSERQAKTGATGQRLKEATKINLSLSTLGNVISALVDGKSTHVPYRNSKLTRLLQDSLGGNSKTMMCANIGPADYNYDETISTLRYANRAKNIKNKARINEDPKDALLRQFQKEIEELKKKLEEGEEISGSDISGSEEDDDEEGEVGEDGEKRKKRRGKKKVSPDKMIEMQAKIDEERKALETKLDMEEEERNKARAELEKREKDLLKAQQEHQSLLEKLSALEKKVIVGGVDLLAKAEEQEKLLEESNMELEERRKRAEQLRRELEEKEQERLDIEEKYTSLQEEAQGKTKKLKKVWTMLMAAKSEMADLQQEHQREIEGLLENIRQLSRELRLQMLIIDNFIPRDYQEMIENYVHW

Binder: B1
- binding result (Kif3A^ΔC103): binds

Binder: B2
- binding result (Kap3 (human)): binds

Binder: B3
- percent of Kif3AB molecules with colocalised Kap3 [1]: 26%
- percent of Kif3AB molecules with colocalised Kap3 [2]: 62%
- percent of Kif3AB molecules with colocalised Kap3 [3]: 50%
- percent of Kif3AB molecules with colocalised Kap3 [4]: 82%

From paper PMC12527917, “Regulation of kinesin-2 motility by its β-hairpin motif” (Nature Structural & Molecular Biology, 2025)
